The values that follow are results of earlier work, collected in publication PMC5176006.

One may read the Kd as the constant that tells how readily two partners part at equilibrium.

The data set deals with IscU (Escherichia coli) (UniProt P0ACD4).
UniProt P0ACD4, sequence (P0ACD4 whole entry): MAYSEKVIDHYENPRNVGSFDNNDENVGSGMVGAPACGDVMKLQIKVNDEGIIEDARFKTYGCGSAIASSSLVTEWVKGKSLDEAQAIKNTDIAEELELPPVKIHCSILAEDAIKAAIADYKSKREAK

For IscS (from UniProt P0A6B7), the Kd was 1000 nM.
